For this assay, the target named is hs12a_human HSPA12A (UniProt O43301).
Chain of UniProt O43301 (O43301 whole entry): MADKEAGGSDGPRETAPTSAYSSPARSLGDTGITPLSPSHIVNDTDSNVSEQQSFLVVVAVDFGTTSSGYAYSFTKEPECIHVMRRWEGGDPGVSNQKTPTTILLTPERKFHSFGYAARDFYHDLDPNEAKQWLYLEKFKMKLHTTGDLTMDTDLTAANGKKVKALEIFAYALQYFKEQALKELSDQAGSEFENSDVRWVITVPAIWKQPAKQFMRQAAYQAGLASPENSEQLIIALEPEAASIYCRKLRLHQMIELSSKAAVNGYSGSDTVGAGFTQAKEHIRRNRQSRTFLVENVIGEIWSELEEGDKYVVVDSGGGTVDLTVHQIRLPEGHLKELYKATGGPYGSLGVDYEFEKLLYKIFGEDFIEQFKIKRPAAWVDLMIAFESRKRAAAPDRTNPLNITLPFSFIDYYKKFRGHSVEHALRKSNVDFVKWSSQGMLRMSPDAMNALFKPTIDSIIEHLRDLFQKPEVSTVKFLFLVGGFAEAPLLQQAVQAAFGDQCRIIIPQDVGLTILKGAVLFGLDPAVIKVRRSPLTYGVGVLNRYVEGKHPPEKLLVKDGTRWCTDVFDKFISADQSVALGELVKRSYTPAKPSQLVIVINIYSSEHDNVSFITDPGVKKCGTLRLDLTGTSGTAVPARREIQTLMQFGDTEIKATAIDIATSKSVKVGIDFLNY
Consider “Sortilin-related receptor (Homo sapiens), Q92673 D2207A;D2208A”, for which the “effect of a mutation on the interaction” value is “disrupting interaction strength”.

In the case of “Sortilin-related receptor (Homo sapiens), Q92673 V2209A;P2210A”, the “effect of a mutation on the interaction” value is recorded as “with no effect”.

For “Sortilin-related receptor (Homo sapiens), Q92673 D2190A;D2191A”, the “effect of a mutation on the interaction” value is on record as “with no effect”.

Regarding “Sortilin-related receptor (Homo sapiens), Q92673 F2205A;S2206A”, the “effect of a mutation on the interaction” value was “with no effect”.

As for “Sortilin-related receptor (Homo sapiens), Q92673 E2194A;D2195A;D2196A;E2197A;D2198A”, the “effect of a mutation on the interaction” value is given as “disrupting interaction strength”.

Turning to “Sortilin-related receptor (Homo sapiens), Q92673 T2203A;G2204A”, the “effect of a mutation on the interaction” value is on record as “with no effect”.

Source of the values: IntAct's records for PubMed 30679749.
